Reference: PMC11054746, “GRPR-Antagonists Carrying DOTAGA-Chelator via Positively Charged Linkers: Perspectives for Prostate Cancer Theranostics” (Pharmaceutics, 2024)
Read-outs that look alike come from different tables or passages of the source.

Experiments:
human GRPR = biological target: T1, human GRPR (Homo sapiens, UniProt P30550); assay: Affinity measurements in real time (LigandTracer) on PC-3 cells; assay type: binding; details: room temperature, 1:2 fitting interaction model
T1 construct: host or cells: PC-3 human prostate adenocarcinoma cells
Protocol: The association curves were recorded at 1 nM and 3 nM of the radiolabeled peptides for 300 min. After reaching the plateau, the medium containing the radioligand was replaced with fresh medium and the dissociation curve was measured for about 16 h. The obtained sensorgrams were analyzed using TracerDrawer (Ridgeview Instruments AB, Uppsala, Sweden) and the dissociation constants (KD) were calculated.

in vivo = assay: in vivo; set-up: species or system BALB/C nu/nu mice; details: BALB/C nu/nu, mouse, iv, total radioactivity; for tissue to tissue ratio at 4 h: Tumor-to-organ ratio
Protocol: (§1) All in vivo studies were performed following European guidelines on laboratory animal protection. The in vivo stability experiments were carried out in healthy male Swiss albino mice; the study protocol was approved by the Department of Agriculture and Veterinary Service of the Prefecture of Athens (protocol number #440448, 01-06-2021). The biodistribution, in vivo targeting specificity assay, and SPECT/CT imaging experiments were carried out on BALB/C nu/nu mice. The Ethics Committee for Animal Research in Uppsala (Sweden) approved the latter in vivo animal studies (permit number 00473/21). The BALB/C nu/nu mice were implanted with GRPR-positive prostate cancer xenografts by subcutaneous injection on the right hind leg of PC-3 cells suspended in PBS (7 × 10^6 cells/mouse) four weeks before the biodistribution studies.
(§2) The mice were iv injected with 40 pmol peptide (30 kBq in a total volume of 100 μL 1% bovine serum albumin (BSA) in PBS). […] At the indicated time points, mice were euthanized under anesthesia. The organs of interest were collected, weighed, and the sample radioactivity content was measured on the gamma counter. The percentage of injected activity per gram (%IA/g) of collected tumors, organs and tissues, the %IA for the remaining gastrointestinal tract and carcass, as well as the tumor-to-organ ratios (T/O) were calculated.

PC-3 xenografts = assay: in vivo; set-up: species or system BALB/C nu/nu mice; details: mouse; for Kidneys uptake: BALB/C nu/nu
Protocol: as §1, §2

[1] = Radiochemical stability: indium release in PBS or with EDTA excess, by iTLC; assay type: physicochemical; details: room temperature, 0.2 M citric acid, mean ± sd, n = 3
Protocol: The radiochemical yield was analyzed with instant thin layer chromatography (iTLC) strips (Agilent Technologies, Santa Clara, CA, USA), using 0.2 M citric acid buffer as a mobile phase (Rf = 0 for the radiolabeled peptide and Rf = 1 for free indium). The iTLC results were analyzed using Cyclone® Plus Phosphorimager (PerkinElmer, Hägersten, Sweden). The radiochemical stability was determined by incubating the radiolabeled compounds with phosphate-buffered saline (PBS) or a 1000-fold molar excess of ethylenediaminetetraacetic acid (EDTA) for 1 h at room temperature. The percentage of indium release was assessed by iTLC using 0.2 M citric acid as mobile phase. Stability tests were performed in triplicate for each compound.

PC-3 cells = assay: Cellular internalization; assay type: cell-based, human; details: 1 nM, acid wash, mean of 3 dishes ± sd, normalized to maximum cell association at 24 h
Protocol: For the cellular internalization assay, PC-3 cells (1 × 10^6 cells/dish) were used. The cells were incubated with 1 mL (1 nM) of solution containing the radiolabeled peptide under evaluation. At the 4 h and 24 h time points, the cells were treated with an acid wash (0.2 M glycine buffer with 0.15 M NaCl and 4 M urea, pH 2) for 5 min on ice to remove the membrane-bound peptide. After collection of acid fractions, the cells were treated with 1 M NaOH for at least 30 min and the cell debris were scraped and collected. The activity content in samples was measured using the gamma counter.

[2] = 40 pmol, Carcass (whole body) uptake
[3] = 40 pmol, GI (gastrointestinal tract, GIT) uptake

T1 sequence (P30550 whole entry): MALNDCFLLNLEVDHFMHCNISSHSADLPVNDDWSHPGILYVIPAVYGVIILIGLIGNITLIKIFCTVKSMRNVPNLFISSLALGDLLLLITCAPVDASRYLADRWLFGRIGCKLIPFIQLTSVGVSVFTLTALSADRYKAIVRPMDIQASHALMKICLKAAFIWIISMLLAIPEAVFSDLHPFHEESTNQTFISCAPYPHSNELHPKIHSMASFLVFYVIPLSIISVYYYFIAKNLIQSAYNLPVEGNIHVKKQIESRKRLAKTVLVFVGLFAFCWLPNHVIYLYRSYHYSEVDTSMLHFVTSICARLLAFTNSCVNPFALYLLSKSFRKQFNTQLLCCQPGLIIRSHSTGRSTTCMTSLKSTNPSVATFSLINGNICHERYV

Row | SMILES | tissue uptake at 4 h (in vivo; 40 pmol, Blood uptake) [%ID/g] | tissue uptake at 4 h (in vivo; 40 pmol, Bone uptake) [%ID/g] | tissue uptake dose at 4 h (in vivo; [2]) [%ID] | tissue uptake dose at 4 h (in vivo; [3]) [%ID] | tissue uptake at 4 h (in vivo; 40 pmol, Kidneys uptake) [%ID/g] | tissue uptake at 4 h (in vivo; 40 pmol, Liver uptake) [%ID/g] | tissue uptake at 4 h (in vivo; 40 pmol, Lungs uptake) [%ID/g] | tissue uptake at 4 h (in vivo; 40 pmol, Muscle uptake) [%ID/g] | tissue uptake at 4 h (in vivo; 40 pmol, Pancreas uptake) [%ID/g] | tissue uptake at 4 h (in vivo; 40 pmol, Small Int uptake) [%ID/g] | tissue uptake at 4 h (in vivo; 40 pmol, Spleen uptake) [%ID/g] | tissue uptake at 4 h (in vivo; 40 pmol, Tumor uptake) [%ID/g] | tissue to tissue ratio at 4 h (in vivo; 40 pmol, Blood) | tissue to tissue ratio at 4 h (in vivo; 40 pmol, Bone) | tissue to tissue ratio at 4 h (in vivo; 40 pmol, Kidneys) | tissue to tissue ratio at 4 h (in vivo; 40 pmol, Liver) | tissue to tissue ratio at 4 h (in vivo; 40 pmol, Lungs) | tissue to tissue ratio at 4 h (in vivo; 40 pmol, Muscle) | tissue to tissue ratio at 4 h (in vivo; 40 pmol, Pancreas) | tissue to tissue ratio at 4 h (in vivo; 40 pmol, Small Int) | also measured
1 | CC(C)C[C@H](NC(=O)C[C@H](O)[C@H](CC(C)C)NC(=O)[C@H](Cc1c[nH]cn1)NC(=O)CN(C)C(=O)[C@@H](NC(=O)[C@H](C)NC(=O)[C@H](Cc1c[nH]c2ccccc12)NC(=O)[C@H](CCC(N)=O)NC(=O)[C@@H](Cc1ccccc1)NC(=O)[C@H](CCCNC(=N)N)NC(=O)COCCOCCNC(=O)CCC(C(=O)O)N1CCN(CC(=O)O)CCN(CC(=O)O)CCN(CC(=O)O)CC1)C(C)C)C(N)=O (stereo partly drawn) [[^111In]In-AU-RM26-M3, metal not drawn] | 0.024 ± 0.002 | 0.06 ± 0.01 | 1.7 ± 0.3 | 1.3 ± 0.9 | 3.4 ± 0.2 | 0.17 ± 0.01 | 0.12 ± 0.01 | 0.03 ± 0.01 | 0.06 ± 0.01 | 0.08 ± 0.03 | 0.08 ± 0.01 | 2.5 ± 0.6 | 104 | 39 ± 8 | 0.7 ± 0.2 | 15 ± 4.5 | 33 ± 22 | 75 ± 18 | 45 ± 15 | 35 ± 15 | Kd (human GRPR; read-out: KD1): 0.245 nM; Kd (human GRPR; read-out: KD2): 1.4 nM; tissue to tissue ratio at 4 h (in vivo; 40 pmol, Spleen): 31 ± 9; Kidneys uptake (PC-3 xenografts; iv, 40 pmol, 4 h): ~ 3.5 %IA/g
2 | CC(C)C[C@H](NC(=O)C[C@H](O)[C@H](CC(C)C)NC(=O)[C@H](Cc1c[nH]cn1)NC(=O)CN(C)C(=O)[C@@H](NC(=O)[C@H](C)NC(=O)[C@H](Cc1c[nH]c2ccccc12)NC(=O)[C@H](CCC(N)=O)NC(=O)[C@@H](Cc1ccccc1)NC(=O)COCCOCCNC(=O)CCC(C(=O)O)N1CCN(CC(=O)O)CCN(CC(=O)O)CCN(CC(=O)O)CC1)C(C)C)C(N)=O (stereo partly drawn) [[^111In]In-AU-RM26-M1, [^111In]In-DOTAGA-PEG2-[Sar^11]RM26, metal not drawn, reference compound] | 0.04 ± 0.01 | 0.05 ± 0.01 | 1.3 ± 0.5 | 0.9 ± 0.1 | 6.4 ± 0.6 | 0.2 ± 0.1 | 0.08 ± 0.05 | 0.04 ± 0.02 | 0.2 ± 0.1 | 0.1 ± 0.04 | 0.08 ± 0.02 | – | 133 ± 26 | 117 ± 16 | 0.9 ± 0.2 | 39 ± 5 | 81 ± 25 | 234 ± 154 | 27 ± 4 | 57 ± 7 | tissue to tissue ratio at 4 h (in vivo; 40 pmol, Spleen): 72 ± 9.5; Kidneys uptake (PC-3 xenografts; iv, 40 pmol, 4 h): ~ 6.5 %IA/g; Tumor uptake (PC-3 xenografts; iv, 40 pmol, 4 h): 6 ± 2 %IA/g
3 | CC(C)C[C@H](NC(=O)C[C@H](O)[C@H](CC(C)C)NC(=O)[C@H](Cc1c[nH]cn1)NC(=O)CN(C)C(=O)[C@@H](NC(=O)[C@H](C)NC(=O)[C@H](Cc1c[nH]c2ccccc12)NC(=O)[C@H](CCC(N)=O)NC(=O)[C@@H](Cc1ccccc1)NC(=O)CN1CCC(NC(=O)COCCOCCNC(=O)CCC(C(=O)O)N2CCN(CC(=O)O)CCN(CC(=O)O)CCN(CC(=O)O)CC2)CC1)C(C)C)C(N)=O (stereo partly drawn) [[^111In]In-AU-RM26-M2, metal not drawn] | 0.003 ± 0.002 | 0.05 ± 0.03 | 0.8 ± 0.1 | 0.8 ± 0.5 | 5 ± 1 | 0.12 ± 0.01 | 0.05 ± 0.01 | 0.02 ± 0.01 | 0.37 ± 0.08 | 0.1 ± 0.06 | 0.07 ± 0.02 | 7 ± 2 | – | – | – | – | – | – | – | – | released [111In]In3+, ×1000 EDTA (1 h) ([1]; 1000-fold molar excess of EDTA): 5.7 ± 0.7% (3); released [111In]In3+, PBS ([1]; incubation in PBS, 1 h): 5.7 ± 0.2% (3); internalized fraction at 24 h (PC-3 cells): 23 ± 2%; tissue uptake at 24 h (in vivo; 40 pmol, Blood uptake): 0.01 ± 0.002 %ID/g; tissue uptake at 24 h (in vivo; 40 pmol, Bone uptake): 0.04 ± 0.02 %ID/g; tissue uptake dose at 24 h (in vivo; 40 pmol, Carcass uptake): 0.5 ± 0.2 %ID; tissue uptake dose at 24 h (in vivo; [3]): 0.13 ± 0.03 %ID; tissue uptake at 24 h (in vivo; 40 pmol, Kidneys uptake): 4.1 ± 0.4 %ID/g; tissue uptake at 24 h (in vivo; 40 pmol, Liver uptake): 0.11 ± 0.01 %ID/g; tissue uptake at 24 h (in vivo; 40 pmol, Lungs uptake): 0.05 ± 0.02 %ID/g; tissue uptake at 24 h (in vivo; 40 pmol, Muscle uptake): 0.02 ± 0.01 %ID/g; tissue uptake at 24 h (in vivo; 40 pmol, Pancreas uptake): 0.15 ± 0.03 %ID/g; tissue uptake at 24 h (in vivo; 40 pmol, Small Int uptake): 0.06 ± 0.03 %ID/g; tissue uptake at 24 h (in vivo; 40 pmol, Spleen uptake): 0.07 ± 0.01 %ID/g; tissue uptake at 24 h (in vivo; 40 pmol, Tumor uptake): 4.9 ± 0.7 %ID/g; tissue uptake dose at 4 h (in vivo; Carcass uptake, Block): 1 ± 0.5 %ID; tissue uptake dose at 4 h (in vivo; GI (gastrointestinal tract, GIT) uptake, Block): 0.46 ± 0.03 %ID; kidney uptake at 24 h pi retained as % of the 4 h renal value (PC-3 xenografts): > 80%; pancreas uptake at 24 h pi as % of the initial 4 h uptake (PC-3 xenografts): 40%; tumor uptake at 24 h pi as % of the 4 h value (PC-3 xenografts): 70%
